Data taken from publication PMC6412629, “β-Galactosidase from Lactobacillus helveticus DSM 20075: Biochemical Characterization and Recombinant Expression for Applications in Dairy Industry” (International Journal of Molecular Sciences, 2019).

Substrate: O=[N+]([O-])c1ccccc1O[C@@H]1O[C@H](CO)[C@H](O)[C@H](O)[C@H]1O
Assay: purified protein
Assay type: biochemical, Lactobacillus helveticus
Details: 50 mM sodium phosphate pH 6.5, 30 °C, oNPG 0.5-22 mM, substrate inhibition seen

B1: recombinant β-galactosidase from L. helveticus (EcoliBL21Lhβ-gal), LacLM (Lactobacillus helveticus; Q7WTB4:Q2E) (protein)
chain 1: MEANINWLDNPEVFRVNQLPAHSDHPFFRDYREWQKQHSSYQQSLNGKWKFHFSANPMDRPQDFYQRDFDSSNFDSIPVPSEIELSNYTQNQYINVLFPWEGKIFRRPAYALDPNDHEEGSFSKGADNTVGSYLKRFDLSSALIGKDVHIKFEGVEQAMYVWLNGHFVGYAEDSFTPSEFDLTPYIQDKDNLLAVEVFKHSTASWLEDQDMFRFSGIFRSVELLGIPATHLMDMDLKPRVADNYQDGIFNLKLHFIGKKAGSFHLLVKDIKGHTLLEKNEDIKENVQINNEKFENVHLWNNHDPYLYQLLIEVYDEQQNLLELIPFQFGFRRIEISPEKVVLLNGKRLIINGVNRHEWDAKRGRSITMSDMTTDINTFKENNINAVRTCHYPNQIPWYYLCDQNGIYVMAENNLESHGTWQKMGEIEPSDNVPGSIPQWKEAVIDRARINYETFKNHTSILFWSLGNESYAGDNIIAMNEFYKSHDDTRLVHYEGVVHRPELKDKISDVESCMYLPPKKVEEYLQNDPPKPFMECEYMHDMGNSDGGMGSYIKLLDKYPQYFGGFIWDFIDQALLVHDEISGHDVLRYGGDFDDRHSDYEFSGDGLMFADRTPKPAMQEVRYYYGLHK
chain 2: MDYTNNQLHIIYGDATLGVNGKDFQYIFSYERGGLESLKVHGKEWLYRVPTPTFWRATTDNDRGSGFNLKAAQWLGADMFTKCTDIHLKVDRHDFAELPIAPFNNKFSNHEYAKSAEISFTYQTLTTPATNAKIIYNIDDVGHIKVTMRYYGKKGLPPLPVIGIRLIMPTAATGFDYEGLSGETYPDRMAGAKEGKFHIDGLPVTEYLVPQENGMHMQTKKLTINRETTQNNVDRTNEKFSLSIQQAEKPFNFSCLPYTAEELENATHIEELPLVRRTVLVIAGAVRGVGGIDSWGTDVESAYHINPELDHEFSFILN
notes: overlapping lacLM genes in pET-21d(+) (NcoI/XhoI); C-terminal His-tag (vector), follows lacM end; E. coli BL21 Star (DE3), HisTrap purified; heterodimer ~109 kDa
Km: 1400 ± 300 µM | Vmax: 476 µmol/min/mg | kcat: 865 ± 120 s⁻¹ | kcat/Km: 618000 M⁻¹ s⁻¹
